# Reference: ChEMBL document CHEMBL2073814, “Involvement of organic cation transporter 1 in hepatic and intestinal distribution of metformin” (J Pharmacol Exp Ther, 2002)
# T1: Solute carrier family 22 member 1 (Mus musculus, UniProt O08966)
# T1 sequence (O08966 whole entry): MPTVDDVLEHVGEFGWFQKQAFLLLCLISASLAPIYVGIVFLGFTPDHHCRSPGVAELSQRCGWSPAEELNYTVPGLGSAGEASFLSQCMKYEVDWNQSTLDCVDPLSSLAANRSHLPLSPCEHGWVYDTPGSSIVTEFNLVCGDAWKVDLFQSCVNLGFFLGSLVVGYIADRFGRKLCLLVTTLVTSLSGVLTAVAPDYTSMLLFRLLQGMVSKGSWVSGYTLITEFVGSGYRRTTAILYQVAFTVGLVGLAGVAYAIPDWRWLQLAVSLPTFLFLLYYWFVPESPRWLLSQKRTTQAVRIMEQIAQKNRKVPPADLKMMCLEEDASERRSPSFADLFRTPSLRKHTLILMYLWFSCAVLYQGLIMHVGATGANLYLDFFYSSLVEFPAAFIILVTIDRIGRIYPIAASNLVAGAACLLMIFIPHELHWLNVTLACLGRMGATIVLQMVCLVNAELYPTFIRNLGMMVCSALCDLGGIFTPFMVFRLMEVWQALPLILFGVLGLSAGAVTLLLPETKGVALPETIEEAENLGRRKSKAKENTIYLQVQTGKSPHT
# Tests used:
# [1] = molecular target: T1, Solute carrier family 22 member 1; assay: TP_TRANSPORTER: decrease in small intestine concentration in Oct1 -/- mouse; type: functional, organism-based; conditions: in vivo
# [2] = molecular target: T1, Solute carrier family 22 member 1; assay: TP_TRANSPORTER: decrease in liver concentration in Oct1 -/- mouse; type: functional, organism-based; conditions: in vivo
# [3] = substrate: CN(C)C(=N)N=C(N)N; assay: (§1) TP_TRANSPORTER: uptake in OCT1-expressing CHO cells; type: functional, cell-based
# [4] = substrate: [H]/N=C(/N)N/C(=N/[H])NCCc1ccccc1; assay: as §1; type: functional, cell-based
# [5] = substrate: CCCCNC(=N)NC(=N)N; assay: cells, lysate or membranes named
Molecule,Activity [1],Activity [2],Km [3] [µM],Km [4] [µM],Km [5] [µM]
CN(C)C(=N)N=C(N)N [METFORMIN],substrate [+],substrate [+],,,
Solute carrier family 22 member 1 (Rattus norvegicus) (protein) MPTVDDVLEQVGEFGWFQKQAFLLLCLISASLAPIYVGIVFLGFTPGHYCQNPGVAELSQRCGWSQAEELNYTVPGLGPSDEASFLSQCMRYEVDWNQSTLDCVDPLSSLVANRSQLPLGPCEHGWVYDTPGSSIVTEFNLVCGDAWKVDLFQSCVNLGFFLGSLVVGYIADRFGRKLCLLVTTLVTSVSGVLTAVAPDYTSMLLFRLLQGMVSKGSWVSGYTLITEFVGSGYRRTTAILYQMAFTVGLVGLAGVAYAIPDWRWLQLAVSLPTFLFLLYYWFVPESPRWLLSQKRTTRAVRIMEQIAQKNGKVPPADLKMLCLEEDASEKRSPSFADLFRTPNLRKHTVILMYLWFSCAVLYQGLIMHVGATGANLYLDFFYSSLVEFPAAFIILVTIDRIGRIYPIAASNLVTGAACLLMIFIPHELHWLNVTLACLGRMGATIVLQMVCLVNAELYPTFIRNLGMMVCSALCDLGGIFTPFMVFRLMEVWQALPLILFGVLGLTAGAMTLLLPETKGVALPETIEEAENLGRRKSKAKENTIYLQVQTGKSSST,,,377,15.6,48.8
